Measurements from patent US20170016905A1 (VAR2 PHARMACEUTICALS, published 2017).

B1: ID1-DBL3ε (3D7, Baculo) (other)
chain: LSFILNSSDANNPSEKIQKNNDEVCNCNESGIASVEQEQISDPSSNKTCITHSSIKANKKKVCKHVKLGVRENDKDLRVCVIEHTSLSGVENCCCQDFLRILQENCSDNKSGSSSNGSCNNKNQEACEKNLEKVLASLTNCYKCDKCKSEQSKKNNKNWIWKKSSGKEGGLQKEYANTIGLPPRTQSLCLVVCLDEKGKKTQELKNIRTNSELLKEWIIAAFHEGKNLKPSHEKKNDDNGKKLCKALEYSFADYGDLIKGTSIWDNEYTKDLELNLQKIFGKLFRKYIKKNNTAEQDTSYSSLDELRESWWNTNKKYIWLAMKHGAGMNSTTCCGDGSVTGSGSSCDDIPTIDLIPQYLRFLQEWVEHFCKQRQEKVKPVIENCKSCKESGGTCNGECKTECKNKCEVYKKFIEDCKGGDGTAGSSWVKRWDQIYKRYSKYIEDAKRNRKAGTKNCGPSSTTNAAENKCVQSDIDSFFKHLIDIGLTTPSSYLSIVLDDNICGADKAPWTTYTTYTTTEKCNKETDKSKLQQCNTAVVVNVPSPLGNTPHGYKYACQCKIPTNEETCDDRKEYMNQWSCGSARTMKRGYKNDNYELCKYNGVDVKPTTVRSNSSKLDDKDVTFFNLFEQWNKEIQYQIEQYMTNTKISCNNEKNVLSRVSDEAAQPKFSDNERDRNSITHEDKNCKEKCKCYSLWIEKINDQWDKQKDNYNKFQRKQIYDANKGSQNKKVVSLSNFLFFSCWEEYIQKYFNGDWSKIKNIGSDTFEFLIKKCGNDSGDGETIFSEKLNNAEKKCKENESTNNKMKSSETSCDCSEPIYIRGCQPKIYDGKIFPGKGGEKQWICKDTIIHGDTNGACIPPRTQNLCVGELWDKRYGGRSNIKNDTKESLKQKIKNAIQKETELLYEYHDKGTAIISRNPMKGQKEKEEKNNDSNGLPKGFCHAVQRSFIDYKNMILGTSVNIYEYIGKLQEDIKKIIEKGTTKQNGKTVGSGAENVNAWWKGIEGEMWDAVRCAITKINKKQKKNGTFSIDECGIFPPTGNDEDQSVSWFKEWSEQFCIERLQYEKNIRDACTNNGQGDKIQGDCKRKCEEYKKYISEKKQEWDKQKTKYENKYVGKSASDLLKENYPECISANFDFIFNDNIEYKTYYPYGDYSSICSCEQVKYYEYNNAE
notes: not shown: V5 and His tag at the C-terminal (modified pAcGP67-A)
B2: DBL2X-DBL4ε (3D7, Baculo) (other)
chain: LTNCYKCDKCKSEQSKKNNKNWIWKKSSGKEGGLQKEYANTIGLPPRTQSLCLVVCLDEKGKKTQELKNIRTNSELLKEWIIAAFHEGKNLKPSHEKKNDDNGKKLCKALEYSFADYGDLIKGTSIWDNEYTKDLELNLQKIFGKLFRKYIKKNNTAEQDTSYSSLDELRESWWNTNKKYIWLAMKHGAGMNSTTCCGDGSVTGSGSSCDDIPTIDLIPQYLRFLQEWVEHFCKQRQEKVKPVIENCKSCKESGGTCNGECKTECKNKCEVYKKFIEDCKGGDGTAGSSWVKRWDQIYKRYSKYIEDAKRNRKAGTKNCGPSSTTNAAENKCVQSDIDSFFKHLIDIGLTTPSSYLSIVLDDNICGADKAPWTTYTTYTTTEKCNKETDKSKLQQCNTAVVVNVPSPLGNTPHGYKYACQCKIPTNEETCDDRKEYMNQWSCGSARTMKRGYKNDNYELCKYNGVDVKPTTVRSNSSKLDDKDVTFFNLFEQWNKEIQYQIEQYMTNTKISCNNEKNVLSRVSDEAAQPKFSDNERDRNSITHEDKNCKEKCKCYSLWIEKINDQWDKQKDNYNKFQRKQIYDANKGSQNKKVVSLSNFLFFSCWEEYIQKYFNGDWSKIKNIGSDTFEFLIKKCGNDSGDGETIFSEKLNNAEKKCKENESTNNKMKSSETSCDCSEPIYIRGCQPKIYDGKIFPGKGGEKQWICKDTIIHGDTNGACIPPRTQNLCVGELWDKRYGGRSNIKNDTKESLKQKIKNAIQKETELLYEYHDKGTAIISRNPMKGQKEKEEKNNDSNGLPKGFCHAVQRSFIDYKNMILGTSVNIYEYIGKLQEDIKKIIEKGTTKQNGKTVGSGAENVNAWWKGIEGEMWDAVRCAITKINKKQKKNGTFSIDECGIFPPTGNDEDQSVSWFKEWSEQFCIERLQYEKNIRDACTNNGQGDKIQGDCKRKCEEYKKYISEKKQEWDKQKTKYENKYVGKSASDLLKENYPECISANFDFIFNDNIEYKTYYPYGDYSSICSCEQVKYYEYNNAEKKNNKSLCHEKGNDRTWSKKYIKKLENGRTLEGVYVPPRRQQLCLYELFPIIIKNKNDITNAKKELLETLQIVAEREAYYLWKQYHAHNDTTYLAHKKACCAIRGSFYDLEDIIKGNDLVHDEYTKYIDSKLNEIFDSSNKNDIETKRARTDWWENEAIAVPNITGANKSDPKTIRQLVWDAMQSGVRKAIDEEKEKKKPNENFPPCMGVQHIGIAKPQFIRWLEEWTNEFCEKYTKYFEDMKSNCNLRKGADDCDDNSNIECKKACANYTNWLNPKRIEWNGMSNYYNKIYRKSNKESEDGKDYSMIMEPTVIDYLNKRCNGEINGNYICCSCKNIGENSTSGTVNKKLQKKETQCEDNKGPLDLMNKVLNKMDPKYSEHKMKCTEVYLEHVEEQLKEIDNAIKDYKLYPLD
notes: as for B1
B3: ID1-DBL4ε (3D7, Baculo) (other)
chain: LSFILNSSDANNPSEKIQKNNDEVCNCNESGIASVEQEQISDPSSNKTCITHSSIKANKKKVCKHVKLGVRENDKDLRVCVIEHTSLSGVENCCCQDFLRILQENCSDNKSGSSSNGSCNNKNQEACEKNLEKVLASLTNCYKCDKCKSEQSKKNNKNWIWKKSSGKEGGLQKEYANTIGLPPRTQSLCLVVCLDEKGKKTQELKNIRTNSELLKEWIIAAFHEGKNLKPSHEKKNDDNGKKLCKALEYSFADYGDLIKGTSIWDNEYTKDLELNLQKIFGKLFRKYIKKNNTAEQDTSYSSLDELRESWWNTNKKYIWLAMKHGAGMNSTTCCGDGSVTGSGSSCDDIPTIDLIPQYLRFLQEWVEHFCKQRQEKVKPVIENCKSCKESGGTCNGECKTECKNKCEVYKKFIEDCKGGDGTAGSSWVKRWDQIYKRYSKYIEDAKRNRKAGTKNCGPSSTTNAAENKCVQSDIDSFFKHLIDIGLTTPSSYLSIVLDDNICGADKAPWTTYTTYTTTEKCNKETDKSKLQQCNTAVVVNVPSPLGNTPHGYKYACQCKIPTNEETCDDRKEYMNQWSCGSARTMKRGYKNDNYELCKYNGVDVKPTTVRSNSSKLDDKDVTFFNLFEQWNKEIQYQIEQYMTNTKISCNNEKNVLSRVSDEAAQPKFSDNERDRNSITHEDKNCKEKCKCYSLWIEKINDQWDKQKDNYNKFQRKQIYDANKGSQNKKVVSLSNFLFFSCWEEYIQKYFNGDWSKIKNIGSDTFEFLIKKCGNDSGDGETIFSEKLNNAEKKCKENESTNNKMKSSETSCDCSEPIYIRGCQPKIYDGKIFPGKGGEKQWICKDTIIHGDTNGACIPPRTQNLCVGELWDKRYGGRSNIKNDTKESLKQKIKNAIQKETELLYEYHDKGTAIISRNPMKGQKEKEEKNNDSNGLPKGFCHAVQRSFIDYKNMILGTSVNIYEYIGKLQEDIKKIIEKGTTKQNGKTVGSGAENVNAWWKGIEGEMWDAVRCAITKINKKQKKNGTFSIDECGIFPPTGNDEDQSVSWFKEWSEQFCIERLQYEKNIRDACTNNGQGDKIQGDCKRKCEEYKKYISEKKQEWDKQKTKYENKYVGKSASDLLKENYPECISANFDFIFNDNIEYKTYYPYGDYSSICSCEQVKYYEYNNAEKKNNKSLCHEKGNDRTWSKKYIKKLENGRTLEGVYVPPRRQQLCLYELFPIIIKNKNDITNAKKELLETLQIVAEREAYYLWKQYHAHNDTTYLAHKKACCAIRGSFYDLEDIIKGNDLVHDEYTKYIDSKLNEIFDSSNKNDIETKRARTDWWENEAIAVPNITGANKSDPKTIRQLVWDAMQSGVRKAIDEEKEKKKPNENFPPCMGVQHIGIAKPQFIRWLEEWTNEFCEKYTKYFEDMKSNCNLRKGADDCDDNSNIECKKACANYTNWLNPKRIEWNGMSNYYNKIYRKSNKESEDGKDYSMIMEPTVIDYLNKRCNGEINGNYICCSCKNIGENSTSGTVNKKLQKKETQCEDNKGPLDLMNKVLNKMDPKYSEHKMKCTEVYLEHVEEQLKEIDNAIKDYKLYPLD
notes: as for B1
B4: DBL1-ID2b (FCR3, Baculo) (other)
chain: HSDSGKYDPCEKKLPPYDDNDQWKCQQNSSDGSGKPENICVPPRRERLCTYNLENLKFDKIRDNNAFLADVLLTARNEGEKIVQNHPDTNSSNVCNALERSFADLADIIRGTDQWKGTNSNLEKNLKQMFAKIRENDKVLQDKYPKDQKYTKLREAWWNANRQKVWEVITCGARSNDLLIKRGWRTSGKSDRKKNFELCRKCGHYEKEVPTKLDYVPQFLRWLTEWIEDFYREKQNLIDDMERHREECTREDHKSKEGTSYCSTCKDKCKKYCECVKKWKTEWENQENKYKDLYEQNKNKTSQKNTSRYDDYVKDFFEKLEANYSSLENYIKGDPYFAEYATKLSFILNPSDANNPSGETANHNDEACNCNESGISSVGQAQTSGPSSNKTCITHSSIKTNKKKECKDVKLGVRENDKDLKICVIEDTSLSGVDNCCCQDLLGILQENCSDNKRGSSSNDSCDNKNQDECQKKLEKVFASLTNGYKCDKCKSGTSRSKKKWIWKKSSGNEEGLQEEYANTIGLPPRTQSLYLGNLPKLENVCEDVKDINFDTKEKFLAGCLIVSFHEGKNLKKRYPQNKNSGNKENLCKALEYSFADYGDLIKGTSIWDNEYTKDLELNLQNNFGKLFGKYIKKNNTAEQDTSYSSLDELRESWWNTNKKYIWTAMKHGAEMNITTCNADGSVTGSGSSCDDIPTIDLIPQYLRFLQEWVENFCEQRQAKVKDVITNCKSCKESGNKCKTECKTKCKDECEKYKKFIEACGTAGGGIGTAGSPWSKRWDQIYKRYSKHIEDAKRNRKAGTKNCGTSSTTNAAASTDENKCVQSDIDSFFKHLIDIGLTTPSSYLSNVLDDNICGADKAPWTTYTTYTTTEKCNKERDKSKSQSSDTLVVVNVPSPLGNTPYRYKYACQCKIPTNEETCDDRKEYMNQWSCGSARTMKRGYKNDNYELCKYNGVDVKPTTVRSNSSKLDGNDVTFFNLFEQWNKEIQYQIEQYMTNANISCIDEKEVLDSVSDEGTPKVRGGYEDGRNNNTDQGTNCKEKCKCYKLWIEKINDQWGKQKDNYNKFRSKQIYDANKGSQNKKVVSLSNFLFFSCWEEYIQKYFNGDWSKIKNIGSDTFEFLIKKCGNNSAHGEEIFNEKLKNAEKKCKENESTDTNINK
notes: Range derived by me from the FCR3 DBL1X forward primer (HSDSGK) and the FCR3 ID2b reverse primer (TDTNINK); also called DBL1X-ID2b; not shown: V5 and His tag at the C-terminal (modified pAcGP67-A)
B5: ID1-DBL2Xb (3D7, Baculo) (other)
chain: LSFILNSSDANNPSEKIQKNNDEVCNCNESGIASVEQEQISDPSSNKTCITHSSIKANKKKVCKHVKLGVRENDKDLRVCVIEHTSLSGVENCCCQDFLRILQENCSDNKSGSSSNGSCNNKNQEACEKNLEKVLASLTNCYKCDKCKSEQSKKNNKNWIWKKSSGKEGGLQKEYANTIGLPPRTQSLCLVVCLDEKGKKTQELKNIRTNSELLKEWIIAAFHEGKNLKPSHEKKNDDNGKKLCKALEYSFADYGDLIKGTSIWDNEYTKDLELNLQKIFGKLFRKYIKKNNTAEQDTSYSSLDELRESWWNTNKKYIWLAMKHGAGMNSTTCCGDGSVTGSGSSCDDIPTIDLIPQYLRFLQEWVEHFCKQRQEKVKPVIENCKSCKESGGTCNGECKTECKNKCEVYKKFIEDCKGGDGTAGSSWVKRWDQIYKRYSKYIEDAKRNRKAGTKNCGPSSTTNAAENKCVQSDIDSFFKHLIDIGLTTPSSYLSIVLDDNICGADKAPWTTYTTYTTTEKCNKETDKSKLQQCNTAVVVNVPSPLGNTPHGYKY
notes: The start at 16 is derived by me from the forward primer (LSFILN); not shown: V5 and His tag at the C-terminal (modified pAcGP67-A)

What follows are molecules tested against CSPG (bovine) (D8428, Sigma) (bovine) (UniProt P21793) (assay: quartz crystal microbalance (Attana A100), CSPG coated, 1:1 fit).
CSPG (bovine) (D8428, Sigma) (bovine), sequence (P21793 31-360): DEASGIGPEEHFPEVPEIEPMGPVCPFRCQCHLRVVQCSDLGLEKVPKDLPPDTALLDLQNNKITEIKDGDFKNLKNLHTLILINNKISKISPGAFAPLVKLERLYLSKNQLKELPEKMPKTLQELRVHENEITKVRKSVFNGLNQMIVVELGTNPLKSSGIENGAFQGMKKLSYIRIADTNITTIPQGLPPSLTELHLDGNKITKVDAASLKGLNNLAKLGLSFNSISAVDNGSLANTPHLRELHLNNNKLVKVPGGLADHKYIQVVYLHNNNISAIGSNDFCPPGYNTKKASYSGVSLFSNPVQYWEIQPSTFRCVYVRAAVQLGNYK
With DBL2X-DBL4ε (FCR3, Baculo) the Kd was 2.4 nM.
Molecule ID1-DBL4ε (FCR3, Baculo) has a Kd of 8.6 nM.
Work on ID1-DBL3ε (FCR3, Baculo) yielded a Kd of 0.3 nM.

Each molecule was assayed against T1, CSPG (bovine) (D8428, Sigma) (bovine, UniProt P21793 31-360, carries chondroitin sulfate A (CSA) glycosaminoglycan chain(s); the filing attributes the binding of VAR2CSA to this glycan) in the same assay as above.
T1 construct: also called chondroitin sulfate proteoglycan; CSA proteoglycan
T1 sequence (P21793 31-360): as above
Work on B1 yielded a Kd of 8.5 nM.
B2 showed a Kd of 1.2 nM.
B3 was tested, and the Kd was 9.4 nM.
Work on B4 yielded a Kd of 1.5 nM.
B5 was tested, and the Kd was 21.8 nM.
